In the nanobody polyreactivity screen of Harvey et al. (2022):

Assay: yeast display, Sf9 membrane polyspecificity reagent, FACS + sequencing; frameworks hold sequencing errors
Method in brief: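 Galactose induction of a Saccharomyces cerevisiae BJ5465 synthetic nanobody display library ran 36–48 hours. The cells were then stained for 1 hour at 4 °C with 10% biotinylated, detergent-solubilized Sf9 membrane reagent, pulled down on streptavidin microbeads and FACS-sorted into low and high (top ~1%) gates on expression and reagent-binding fluorescence. Labels for polyreactivity follow the gate of origin.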

QVQLVDSGGGLVQAGGSLRLSCAASGFTFVYYFMGWYRQAPGKERELVAAITRSCRTYYADSVKGRFTISRDNAKNTVYLQMNSLKPEDTAVYYCARGYGYADHAMGYWGQGTQVTVSS
polyreactivity (PSR sort gate): high polyreactivity

QVQHVESGGGLVQAGGSLRLSCAASGRIIWWYAMRRYRQPPGKERELVAVIDDSVGITYFADSVKGRFTISRDNAKNTVYLQMNSLKPVDTAVNYCARNVNAQKVLGGFDSWGKGTQVTVSS
polyreactivity (PSR sort gate): low polyreactivity

QVQLVESGGGLVQAGGSLRLSCAASGSIFTTNAMGWYRQAPGKERELVARIDRAGSTYYADSVKGRFTISRDNAKNTVYLQMNSLKPEDTSVYYCAVEAVLSRPYATKFDYWGQGTEVTVSS
polyreactivity (PSR sort gate): low polyreactivity

QVQLEESGGGLVQAGCSLRLSCAASGRIFHFYAIGRYRQAPGKERELVAVINGGGSTYYADSVKGRFTISRDNAKNTVYLQMNSLKPEVTAVYYCAADVYLSRYEKYGYWGQGTQVTVSS
polyreactivity (PSR sort gate): high polyreactivity

QVQLVESGGGLVQAGGSLRLSCAASGNTLRYYAMGWYRQAPGKERELVAAITRRGGSTYADSVKGRFTISRDNAKNTVYLQMNSLKPEDTAVYYCNRVLYDHSFPYNRGYDYWGQGTQVTVSS
polyreactivity (PSR sort gate): high polyreactivity

QVQLVESGGGLVQAGGSLRLSCAASGSIFITYAMGWYRQAPGKERELVAAIRDSGDRTYYADSVKGRFTISRDNAKNTVYLQMNSLKPEDTAVYYCNARWQKPLKYDYWGQGTQVTVSS
polyreactivity (PSR sort gate): low polyreactivity

QVQLGESGGGLVQSGGSLRLSCAASGRTFCYYAMGWYRQAPGKERELVAAITNRGGNKYYADSVKGRFTISRDNAKNTVYLQMNSLKPEDTAVYYCAAYNRIYGYHTLYYWGQGTQVTVSS
polyreactivity (PSR sort gate): high polyreactivity

QVQLVESGGGIVQAGGSLRLSCAASGRTFNHYAMGWYRQAPGKERELVAAITNGGNTYYADSVKGRFTISRDNAKNTVYLQMNSLKPEDTAVYYCAKLYTDAIVWSAYDYWGQGTQVTVSS
polyreactivity (PSR sort gate): low polyreactivity

QVQLVESGGGLVQAGGSLRLSCAASGRTFSIYTMGWYRQAPGKERELVASIRRSSGSTYYADSVKGRFTISRDNAKNTVYLQMNSLKPEDTAVYYCAADRIRLDSRKFDYWGQGTQVTVSS
polyreactivity (PSR sort gate): low polyreactivity

QVQLVESGGGLVQAGGSLRLSCAASGRNFSANAMGWYRQAPGKEREMVATISSGGRTNYADSVKGRFTISRDNAKNTVYVQMNSLKPEDTAVYYCAKRGPYNRWYGRYDYWGQGTQVTVSS
polyreactivity (PSR sort gate): low polyreactivity

QVQLVESGGGLVQAGGSLRLSCAASGIIFATYAMGWYRQAPGKERELVASISTGDSTNYADSVKGRFTISRDNAKTTVYLQMNSLKPEDTAVYYCNADSYPYYVYGSNDYWGQGTQVTVSS
polyreactivity (PSR sort gate): low polyreactivity

QVQLVESGGGLVQAGGSLRLSCAASGSTFPGNAMGWYRQAPGKERELVAAIRDRGTSTYYADSVKGRFTISRDNAKNTVYLQMNSLNPEDTAVYYCAARSFTADLGYYWGQGTQVTVSS
polyreactivity (PSR sort gate): high polyreactivity

QVQLVESGGGLVQAGGSLRLSCAASGRTFRANAMGWYRQAPGKERDLVAAITWDGGSTYYADSVKGRFTISRDNAKNTVYLQMNSLKPEDTAVYYCNTDPYLWGQGTQVTVSS
polyreactivity (PSR sort gate): low polyreactivity

QVQLVESGGGLVQAVGSLRLSCAASVSTFRHYAMGWYRQAPGKERELVAAISSTGGSTYYADSVKGRFTISRDNAKNTVYLQMNSLKPEDTAVYYCAARRLYWGQGTQVTVSS
polyreactivity (PSR sort gate): high polyreactivity

QVQLVESGGGLVQAGGSLRLSCAASGITFKPYGMGWSRQAPGKERELVADITSGGITYYADSVKGRFTISRDNAKNTVYLQMNSLKPEDTAVYYCAAPYQQHVYHHYWGQGTQVTVSS
polyreactivity (PSR sort gate): low polyreactivity

QVQLVESGGGLVQAGGSLRLSCAASGFIFTYYDMGWYRQAPGKERELVASISWDGGRTYYADSVKGRFTISRDNAKNTVYLQMNSLKPEDTAVYYCNADGSSYWYPVPLDGGDYWGQGTQVTVSS
polyreactivity (PSR sort gate): low polyreactivity

QVQLVESGGGLVQAGGSLRLSCAASGSIFEYNDMGWYRQAPGKEREMVSAISWNGGSTYYADSVKGRFTISRDNAKNTVYLQMNSLKPEDTAVYYCAADGDPLWVASEYDSWGQGTQVTVSS
polyreactivity (PSR sort gate): low polyreactivity

QVQLVESGGGLVQAGGSLRLSCAASGSTIRYYAMGWYRQAPGKERELVAAITKSGGSTYYADSVKGRFTISRDNAKNTVYLQMNSLKPEDTAVYYCAAVRRWYYPALSEHDYWGQGTQVTVSS
polyreactivity (PSR sort gate): low polyreactivity

QVKLVDSAGGLVQAGVILRLRCAASGSIVRPNAMGWYSQATGKERELVAAITSSGTTNYADSVKVRFTISRDNAKNTVYLQMNSLKPEDTAVYYCAAERKDGGYGYGVWDYYPGENMDYWGQGTQVTVSS
polyreactivity (PSR sort gate): low polyreactivity

QVQLVESGGGLVQAGGSLRLSCAASGRIFGPYVMGWYRQAPGKERELVAAISTSGTSTYYADSVKGRFTISRDNAKNTVYLQMNSLKPEDTAVYYCAKRSGARHRLMDYWGQGTQVTVSS
polyreactivity (PSR sort gate): low polyreactivity

QVQLVESGGGLVQAGGSLRLSCAASGSIFGRYGAIGWYRQAPGKERELVAAINRSGGITYYADSVKGRFTISRDNAKNTVYLQMNSLKPEDTAVYYFNADAYYYSTSPRGAFDWPYDYWGQGTQVNVSS
polyreactivity (PSR sort gate): low polyreactivity

QVQLVESGGGLVQAGGSLRISCAASGIIFSPYVMGWYRQAPGKERELVAAITTGDSTNYADSVKGRFTISRDNAKNTVYLQMKSLKPEDSAVYYCNADLYVGYLYYLFDYWGQGTQVSVSS
polyreactivity (PSR sort gate): low polyreactivity

QVQLVESGGGLVQAGGSLRLSCAASGSTFPRYAMGWFRQAPGKEREFVAAISRRGGSTYYADSVKGRFTISRDNAKNTVYLQMNSLKPEDTAVYYCANRVRTGSVGNFNYWGQGTQVTVSS
polyreactivity (PSR sort gate): high polyreactivity

QVQLVESGGGLVQAGGSLRLSCAASGSTFYPNAMGWYRQAPGKERELVARISGRGGRTYYADSVKGRFTISRDNAKNTVYLLMNSLKPEDTAVYYCSKDPSSDLDYDYWGQGTQVTVSS
polyreactivity (PSR sort gate): low polyreactivity

QVQLVESGGGLVQAGGSLRLSCAASGRTFWYYGMGWYRQAPGKERELVAAISRSGGRTSYADSVKGRFTISRDNAKNTVYLQMNSLKPEDTAVYYCATDGYYRYGYWGQGTQVTVAS
polyreactivity (PSR sort gate): high polyreactivity

QVQLEESGGGLVQAGGSLRLSCAATGSIFYSYAMGSNRQAPGKEMELVATISTGGSTDYADSVKGRYTISRDNAKNTVYLQMNSLKPEETAVYYCATSGPYWWLVYWGQGTQVTVSS
polyreactivity (PSR sort gate): low polyreactivity

QVQLVESGGGLVKAGGSLRLSCAASGSSLRYNAMGWYRQAPGKERELVAAISWGGGRTHYADSVKGRFTISRDNAKNSVYLQMNSLKPEDTAVYYCNGVSVRYLYYYWGQGTQVTVSS
polyreactivity (PSR sort gate): high polyreactivity

QVQLVESGGGLVQAGGSLRLSCAPSGSTFFTYAMGWYRQAPGKERELVASISIGGSTNYADSVKGRFTISRDNAKNTVYLQMNSLIQEDSAVYYCAIRYFTFGVDYEYWGQGTQVTVSS
polyreactivity (PSR sort gate): low polyreactivity

HVQLQESGGGLVQAGGSLRLSCAASGYISHADEMGWYRQAPGKEHELVASISNGGSTNYADSVKGRFTISRDNAKNTVYLQMNSLKSEVTAVYYCAAWTGQVDFHYYWGQGTQVSVSS
polyreactivity (PSR sort gate): low polyreactivity

QVQLVESGGGLVQAGGSLRLSCAASGSIFSRYAMGWYRQAPGKERELVAAISTIGGSTYYADSVKGRFTISRDNAKNTVYLQMNSLIPEDTAVYYCNARQTAALTPRYGYWGQGTQVTVSS
polyreactivity (PSR sort gate): high polyreactivity

QVQLVESGGGLVQAGGSLRLSCAASGSIFLSNAMGWYRQSPGKERELVAAISSSGGSTYYADSVKGRFTISRDNAKNTVYLQMNSLKPEDTAVYYCAATGYGFRGRFDYWGQGTQVTVSS
polyreactivity (PSR sort gate): low polyreactivity

QVQLVESGGGLVQAGGSLRLSCAASGLIFYRYAMGWYRQAPGKERELVAAISSGGSTYYADSVKGRFTISRDNAKNTVYLQMNSLKPEDTAVYYCADRTRVSPQIHIYRAYGYWGQGTQVTVSS
polyreactivity (PSR sort gate): high polyreactivity

QGQLVESGGGLFQAGASLRLSCAASGITFYDNAMGLYRQAPGKERELVAGISYDGDSTYADSVKGRFTISRDNAKNTVYLQMNSLKPEDTAVYYCAALCPYDWLWAGDYWGQGTQVTVSS
polyreactivity (PSR sort gate): low polyreactivity

QDQLVESGGGLVQAGGSLRLSCAAYGYTFPWYAMGWYRQAPGKERELVAAISDTGTTNYADSVKGRFTISRDNAKNTVYLQMNSLKPEDTAVYYCNAKVTSYWYYPFNYWGQGTQVTVSS
polyreactivity (PSR sort gate): low polyreactivity

QVQLVESGGGLVQAGGSLRLSCAASGSILSRYAMGWYRQAPGKERELVAAISSRGGSTYYADSVKGRFTISRDNAKNTVYLQMNSLKPEDTAVYYCAADPVGEVRVYARGYSWGQGTQVTVSS
polyreactivity (PSR sort gate): high polyreactivity

QVQLVESGGGLVQAGGSLRLSCAASGSTFGDNAMGWYRQAPGKEREFVATISWDTATTYYADSVKARFTISRDNAKNTVYLQMNSLKPEDTAVYYCAARATAYYTVPSYADVDYWGQGTQVTVSS
polyreactivity (PSR sort gate): low polyreactivity

QVQLVESGGGLVQAGGSLRFSCAASGNIIDLYAMGWYRQARGQERVLVAAITRSSSRTYYADSVKGRFTISRDIAKNTVYLQMNSLKPEDTAVYYCRANQVNRLDYWGQGTQVTVSS
polyreactivity (PSR sort gate): high polyreactivity

QVQLDESGGGLVQAGGSHRLSCAASGYIFGYYAMGWSRQAPGKERELVAAISKSGTDTYYADSVKGRFTISRDYAKNTVFLQMNSLKPEDTAVYYCNALLRGYSYGYDYWGQGTQVTVSS
polyreactivity (PSR sort gate): high polyreactivity

QVQLVESGGGLVQAGGSLRLSCAASGRIFHYYAMGWYRQAPGKERELVAAINKSGGRTYYADSVKGRFTISRDNAKNTVYLQMNSLKPEDTAVYYCAAQDGYWGQGTQVTVSS
polyreactivity (PSR sort gate): high polyreactivity

QVQLVESGGGLVQAGGSLRLSCAASGSTFVYYAMGWYRQAPGKERELVAAISSGGNTKYADSVKGRFTISRDNAKNTVYLQMNSLKPEDTAVYYCARESQSYYDHDYWGQGTQVTVSS
polyreactivity (PSR sort gate): low polyreactivity

QVQLVESGGGLVQAGGSLRLSCAASGSIFRENAMGWYRQAPGKERELVAAITDGGDRTYYADSVKGRFTISRDNAKNTVYLQMNSLKPEDTAVYYCAARWLYWPRYNSLVYTHRDSWGQGTQVTVSS
polyreactivity (PSR sort gate): low polyreactivity

QDQLVESGGGLVQAGGSLRLSCAASGRTFSYNAMGWYRQAPRKERELVAAISYDGGRTYYADSVKGRFTISRDNAKNTFYLQMNSLKPEDTAVYYCAAYPYRGPHTWTIGDYWGQGTQVTVSS
polyreactivity (PSR sort gate): low polyreactivity

QVQLVESGGGLVQAGGSLRLSCAASGSIFTQYTMGWYRQAPGKERELVAAISRSGGRTYYADSVKGRFTISRDIAKNTVYLQMNSLKPEDTAVYYCAAEYTDKYEYWGQGTQVTVSS
polyreactivity (PSR sort gate): high polyreactivity
